Literature values as cited in publication PMC11698047.
Read-outs that look alike come from different tables or passages of the source.

Experiments:
Ras (Homo sapiens) [1] = target: Ras (Homo sapiens) (UniProt P01112)
H-Ras (Homo sapiens) [2] = target: H-Ras (Homo sapiens) (UniProt P01112)
Ras (Homo sapiens) [3] = target: Ras (Homo sapiens) (UniProt P01112); remark: listed apart in the source
Rap1 (Homo sapiens) = Rap1 (Homo sapiens) (UniProt P62834)
H-Ras (Homo sapiens) [4] = target: H-Ras (Homo sapiens) (UniProt P01112); remark: listed apart in the source
TC21 (Homo sapiens) = TC21 (Homo sapiens) (UniProt P62070)
Sequence of TC21 (Homo sapiens) (P62070 2-201): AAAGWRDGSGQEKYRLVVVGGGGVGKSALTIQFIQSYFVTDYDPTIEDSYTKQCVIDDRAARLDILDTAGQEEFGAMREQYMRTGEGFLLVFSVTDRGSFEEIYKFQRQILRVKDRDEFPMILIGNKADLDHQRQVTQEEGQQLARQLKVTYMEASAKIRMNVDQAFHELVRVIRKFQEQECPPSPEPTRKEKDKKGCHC

Rap2 (Homo sapiens) = Rap2 (Homo sapiens) (UniProt P10114)
Sequence of Rap2 (Homo sapiens) (P10114 1-180): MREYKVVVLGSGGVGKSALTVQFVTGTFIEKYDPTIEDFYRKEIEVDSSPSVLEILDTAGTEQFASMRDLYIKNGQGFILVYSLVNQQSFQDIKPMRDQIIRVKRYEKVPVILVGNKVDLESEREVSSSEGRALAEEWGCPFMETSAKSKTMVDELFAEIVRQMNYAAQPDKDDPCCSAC

R-Ras (Homo sapiens) = R-Ras (Homo sapiens) (UniProt P10301)
Sequence of R-Ras (Homo sapiens) (P10301 1-215): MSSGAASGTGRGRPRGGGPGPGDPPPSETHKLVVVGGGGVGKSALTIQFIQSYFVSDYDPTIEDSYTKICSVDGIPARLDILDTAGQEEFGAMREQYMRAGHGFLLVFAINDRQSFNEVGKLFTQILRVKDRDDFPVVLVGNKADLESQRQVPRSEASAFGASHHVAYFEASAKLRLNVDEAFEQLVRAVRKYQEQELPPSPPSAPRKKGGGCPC

M-Ras (Homo sapiens) = M-Ras (Homo sapiens) (UniProt O14807)

Sequence of Afadin RA1 (P55196 39-133): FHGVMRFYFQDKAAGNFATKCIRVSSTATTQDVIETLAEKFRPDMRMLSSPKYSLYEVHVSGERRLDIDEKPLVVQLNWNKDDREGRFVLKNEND
Sequence of Afadin RA1 with N-terminal α-helix (P55196 1-141): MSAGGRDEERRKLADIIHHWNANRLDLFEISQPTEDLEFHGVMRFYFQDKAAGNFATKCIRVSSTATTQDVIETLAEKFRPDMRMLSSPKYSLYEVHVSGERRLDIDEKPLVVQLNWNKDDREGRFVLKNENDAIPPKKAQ
Sequence of Afadin RA2 (P55196 246-348): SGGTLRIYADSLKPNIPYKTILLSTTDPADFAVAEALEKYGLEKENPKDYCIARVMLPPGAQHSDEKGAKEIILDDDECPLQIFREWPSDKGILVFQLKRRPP
Sequence of Rap1 (Homo sapiens) (P62834 1-181): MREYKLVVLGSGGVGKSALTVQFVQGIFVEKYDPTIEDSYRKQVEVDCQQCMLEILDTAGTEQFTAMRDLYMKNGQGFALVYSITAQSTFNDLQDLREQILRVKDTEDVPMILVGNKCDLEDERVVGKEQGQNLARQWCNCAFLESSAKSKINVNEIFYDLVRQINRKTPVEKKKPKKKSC
Sequence of Afadin RA1 without N-terminal α-helix (P55196 39-133): as the sequence (P55196 39-133) above

In the case of “Afadin RA1 with N-terminal α-helix (from UniProt P55196)”, the Kd (Ras (Homo sapiens) [1]) is listed as 4.1 µM.

In the case of Afadin RA2 (from UniProt P55196), the Kd (H-Ras (Homo sapiens) [2]) is given as 30 µM.

In the case of “Afadin RA1 without N-terminal α-helix (from UniProt P55196)”, the Kd (Ras (Homo sapiens) [3]) is given as 17.8 µM.

For Afadin RA1 (from UniProt P55196), the Kd (Rap1 (Homo sapiens)) is listed as 240 nM, the Kd (H-Ras (Homo sapiens) [4]) is listed as 2500 nM and the Kd (TC21 (Homo sapiens)) is listed as 16 µM. The Kd (Rap2 (Homo sapiens)) was 2500 nM, the Kd (R-Ras (Homo sapiens)) was 16 µM and the Kd (M-Ras (Homo sapiens)) was 2500 nM.
